From the domain aggregation screens of Martell et al. (2025)

Assay: soluble fraction after stress (log2 fold change); higher = more stays soluble; pooled small domains, quantitative proteomics
Conditions: stress: pH 4
Procedure, shortened: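 After pH 4 stress, pooled custom libraries of small protein domains were quantified with high-throughput quantitative proteomics. Aggregation propensity is taken from the fold change in each domain's soluble amount following the acid stress. The scale is log2, where higher values mean more stayed soluble.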

Sequence | soluble fraction (log2)
HMGGEEINMINLVGLSQSEAENQLAKLKLKIGQVTAEYSDKPSGTVLKQSISANNKVKKGADIDIVVSKG | 0.207
HMGGELLSLRRIGTLTGISYPTLLRYVARYGEQIPQTGTGRSRRFPPAAVPVFQELRATRGRAPRATA | 0.0768
HMGGEPKALLFAGVETREMAEITQRLEAADIPYEIREDGGSIYVARSEVFNARMMLSADGLPS | 0.233
HMGGFNATTLQNIEELRRSLSDADQFGRHEVIETIGGSDSRAGKLLKKMLEAGIIEQVKGHGKGRYRFKRT | 0.0979
HMGGGEYTVAKGDTLWKIAAQTLGSPTRYAEIYNLNKDVIEETARGRGKRDSSNGHWLFPGTALKIPGT | -0.234
HMGGGFLVPSLVGKSLEEARSLSELRGFKLEVGDYVISSEYPAGRVTRQNPANGAKGQEGDVIKVEVSS | 0.153
HMGGGRELGLDPETGKKISVRLGKFGPFVQLGESGEEDKPVFANLGKNQSIATLSLEEAIALLARPK | 0.189
HMGGGVSSSLAGNVFKVLLPAGSVVEQGQAVIVLEAMKMETEVNAPKSGSVSSVFVNEGDTVEVGDLLFAI | -0.162
HMGGKWKAIIIYHLKNGPKRFGELRRALISSTETVLSNQLKQLEQDGLVSRQVFGTKPPLKTVYSLTDFG | -0.906
HMGGKWKLRILLALENSAQDALRYGEIKNIVSGITDMMLSQSLRELTADGLIERRQYQEIPPKVEYRLS | -0.868
HMGGKWKPIILYYININSVARYSELKRFIPSINERMLTRQLRELEEDNLIERKVYPIVPPKVEYRLTEYGK | 0.0222
HMGGKWSMPIIYILSKGKMRFKELERSVEGINTRMLVKELKNMEANGIVTREVFPTVPPTVEYALT | -0.178
HMGGKYKGVIIGHLIDKTLRYNELQKLISHATPKMLIQQLKELEADGIIQRKLYPVVPPKTEYSLTERG | -0.0376
HMGGLAEGTKITLQNTVNVRASMGEDAEKIGTAYAGEKVTVIMSYAEGWTKVTWNDKTGYIKTSLL | -1.04
HMGGLAHPASGEEMEHLFAHLEGELLKSGFLFPPDKAAGMMRNIRAMLTRADFTDQEVRTLRGMIVALSRG | -0.794
HMGGNDALEIAKSNPQVIEVLGEPVTKDGMGSYSVNYKNGHKTSEATIPIEGPNGTATLHVKTSGSDDAL | 0.22
HMGGNKILTWKTDAATTRNQVPINERKEGLEISYKNEERNWVAEKYVGTSFSDDKWGVDYNWNQD | -0.559
HMGGPAGPDFTYTGDDLTRIDYDDGSYKVFTYDAGKLSQIDFTSGGTTTRKTFVYSGDTLIRVDQTI | -1.43
HMGGPEPIPAQIREGDTVYVTKFKQLGLVLKISEDTAEVQIGPLRATVAKTELSKVDATATEHR | -0.0107
HMGGQFVKVEVIAQIFGVTVRRVQQLTQEGVVKTTEIPGEGRRYELVPTIKTYIQYLSDKAY | 0.0375
HMGGTFLVRILDPALNIRAQPSLTARINGVIRDKSVYTIVATSFEPKTQITWGKLKSGAGWISIGSKYVKK | 0.0406
HMGGVTVQNRETHVNSTVNVRSEQTTESERVALAYQGDAITQIESYENGWSKVEYKGLSGYVMTEYL | -0.819
HMGGYLIGDVAQMVGLSRDALRFYEKKGIIRADKKENGYRYYSEDDIYRLMYILYHRKMNTSLEEIGGLMS | -0.478

Sequence | soluble fraction (log2)
HMGHKKLTIELQDEIIVLPKELEKYNLTVSDDKTSLIYTYKSRGEKTGITDLLRDIKDAGLRLKDLITEQ | -0.0229
HMGHTVHAVPEAADRQRLDVFVGNLHPTISRAYIQKLSKEDQILVNGKPEKAGFKLRTGHSVSVPDMSE | 0.177
HMGIAEAKRVIVRTLHDVLGPEADFLTEKIDVAQTAAELRVHAEKYRDMLVDMGKPKKSAAFWEAFEAALP | -0.65
HMGIAKLLTEQEYKIALLAAERRTNAMIAEEMNLTENTVKTHLKHIFDKVGIAGNAKNKRHLLADMMNSER | 0.0405
HMGIDISAFSETALQVLRLQAAGYTAKEISEKLHITPRTVKYHASQNYRKLDAKNLVDAVQIAQALHI | -0.171
HMGIEQVELASRVRDAVDSLPHHLREIILLSYFQKMSYNQIAETLQVPLGTVKSRLHAAVASFAQAWTQSS | -0.658
HMGIFAQTTKWRDIYTVKKKDTIFGIANKYGLSLPELMEANPEMKQEGYMLQKGTTLFIPFASD | -0.0354
HMGIGSTLTDGVRVYASDDEIVVNAPAESDVRIFNAGGAQLYAGRVADVRVAVAKGLYVVTVDGRSTKITV | 0.217
HMGIILDWELFEQFADKLKRKKVDFVIEPYLRFEGRRGEQSTLFIKDPSGNYLEFKAFKNIDMLFEK | -1.38
HMGIPIEAYHESLHRHYIDLWELLDTGKETLIDAEGNEVDKIHLLNAIRFNVNGMLHELLKE | -1.48
HMGIQYVASGHYARMETDAQGVSRLFPPESGAPDESDRLAALSPEVLTRLILPLGDFAPEDVEEMAVD | -0.294
HMGIRAFDPEAFDERLKEFFSMIAPYKKLDTRSLQPHFPHHAKEVAERIRQLAEAGKIKVDGFYISEL | -0.0943
HMGIRDIHITVNGESLKLSKKQNYIFVDIFDFYPFDLSILGGSKLITTINGEQAEFTSPLKDGDVVELYWK | -0.977
HMGISNEETFLLEKMSSGRRYSRKELDNLMGFEKTKTIRLLGSLINKGLVVAEGVNRARRYIR | -0.00925
HMGISQAQAMQALRKLIEEEDKHTPLSDQTLMERLKAAGIPLARRTIAKYRESLGIPSAAQRK | -0.0327
HMGISVEVPDLKNMSVAEAGSLLKNSGLSYAVVDSDYVKTISPGKILDQNPGRGLRVKKGRIVYLTINSL | -0.283
HMGITDHIYQDLKKRLENGNYPAGTRFPSESTLADEFSVNKMTMNKIVSMLAEQGYLIRGNRGAGTRVAEN | -0.0244
HMGITPSIEMILEYFAFKESSETEANKFFNYYSSIGWLVGGKTKMKDWKASARNWIMNQNKFQ | -1.01
HMGIVAPGTLKHLHAVGNSYYPDWETKRHELVTAVTKGRTSSSKELYEAEANRLITRIEELLMTAAQSV | -0.548
HMGIVTMPGQGSKMRFDFDATGDLPSSTSWRGMFAYANNTKRAYVSTGTTMGGYNGWRQLIAMDEYGNYQT | 0.22
HMGKEIEAPDFKNMTLKEAKIAAKEYKIRIKKGDEVVSEEVEKGRIVSQDPDAGTTIKTGSTVTVNISKGL | 0.0135
HMGKELSTVVVPDLTGLSVLEARNVLTKVGLQLTPSGAGIAFKQIPTPGTRLTLGATVTVYFVATGY | -1.27
HMGKELTVPDVVGQNYVSAQEKLIAGGFQVEVADSVYDSRYGRGVVVDQNPHKDTRVKPGRLIYVTVNA | 0.0611

Sequence | soluble fraction (log2)
HMGKEWPTPDNVEEWKKLVKKARLWPIQADQAQSEETRERNRKKWELFVAYAKRFGYRAGIGETGKPFVNN | 0.164
HMGKINEIVANNIAILRKKNRLSLEELGKLSGVSKSMLALIEKGDGNPTLGILWKIANGLGVPFDELTRRP | 0.0455
HMGKLGENIKRIREGMGLSQRQFGELIGKSDSQIWSYENDRTDILASTLYKIAAVANVDFNNLMAGIIP | -1.35
HMGKLYRDRYAPLEPDGARAGDRVFIISLEKEGTLERIDLPRKTATVLLGSSIRSTFPLDDLYQPRG | -0.163
HMGKMTSTLGVHIAAYRKEHGETVAQFASRSGVSVSSIRRIESGISDPSADLVWKISRHMGMTMDDLFKKM | -0.0972
HMGKNISEEDMLGYFKKIDLDYDAETKEVIAPTFRHDLFRLADLAEEVARFFGYDNIPTTLPSGEAT | -0.488
HMGKPAGLIRELGNHPEDEKPVTLNNGRFGPYVKHGKVMASLTKADSPDDITFDRAIELIAIKAEKMAAKG | -0.00901
HMGKPTPASQVATRWLTGNLPESLPVAGPAPSFEALARTVSTDLHPRSVLQELVRLGVAEEANGVVTLRRQ | -0.0399
HMGKPVTMELLIPYSQGSLVHRISEAGEVAKTEYQNDGTYMQVTFTPSAKDHALMQEVASYRI | 0.0901
HMGKSDDSLAAEKFIQHVRKNGELSYEQAYRMVHAYFPDFRNFEGMVSGAVKSGYLILIQKSTGLFLRAKE | -0.205
HMGKTEMPFSTFLTEVDKGNIVSVDIRGSEISGNFRDGKGFKTYSPNYPNLVEKLSAKGVAITAGPR | 0.295
HMGKTKFTEMSALELKAYAELNNNSMHWVYRMLYIGGGDVGFRKGMKELGYSGKFIWMTLERLKKS | -0.583
HMGKTTQEIEERSSTSTLTLTQTPKEIISVQGKKSDQSFFTNIQYTQNGKVIVPKQTGIYDTIKVVFTVSL | -0.256
HMGKVLIYKPNMSVSDVAIRLGISNAEIIKRLMGLGVMTSINQTIDRDTIELVAMDLGFSIEN | -0.581
HMGLAGVQSDVKVSFDGDLLVVTSDIARSFNLFAVDGRLIRSVNLIAGRNEIRGLERGFYLAEKQKIFV | -1.36
HMGLAWTVEGRTVLLGRTADRIELYNVGGGLVALARESDRISAPGVGLYVVRVVSDGQSVSQKIWIT | -0.325
HMGLDMSLEREQHRALREASQWYARLADEQVDSDAERAWRHWVAADEANQRAWQYIEAVSQRFDG | -0.829
HMGLDNEGFERLRQKITRLLSEEALPVKELVDSFASKMRQEVLETLAFLQQEGVIEEKNGKLFLK | -0.283
HMGLIDNLTRIMEKKNISAYQLEKAGIVKQTTFTSWKKGTQPALDKIIKIMQYIEVTPNELFGY | -0.456
HMGLKWVYYTNIEPDGNKINNQKLYDILKQKFVYPVIISRDELDSMELKDLTYDSYIDVEGRYFKPYNLD | -2.03
HMGLNPSILVKLGNANIKTIDNLADLASDELKEILEDISITSKEADEIIMRARSSWFEEDDKKEDNI | 0.175
HMGLPAWVPQNYIDRVTAIYDYSADKDDELTFNEGSTIFVLKKNDDGWWEGVMDGVTGLFPGNYVEAT | -1.63
